The record followed here is patent US20230226096A1 (Orna Therapeutics, Inc., priority 2020, published 2023).

In the series the test system is HEK293 cells. It is filed as cell-based, human. The note with it: luminescence from secreted Gluc in supernatant 24 hours after transfection of HEK293 cells; circular RNA encoding Gluc with the named IRES (UTR truncated to 675 nt).

B1: Caprine Kobuvirus d30 (nucleic acid, listed as Kobuvirus sp.)
DNA: CTCTTTTCCGGTGGCCACGCCCGGGCCACCGATACTTCCCTTCACTCCTTCGGGACTGTTGGGGAGGAACACAACAGGGCTCCCCTGTTTTCCCATTCCTTCCCCCTTTTCCCAACCCCAACCGCCGTATCTGGTGGCGGCAAGACACACGGGTCTTTCCCTCTAAAGCACAATTGTGTGTGTGTCCCAGGTCCTCCTGCGTACGGTGCGGGAGTGCTCCCACCCAACTGTTGTAAGCCTGTCCAACGCGTCGTCCTGGCAAGACTATGACGTCGCATGTTCCGCTGCGGATGCCGACCGGGTAACCGGTTCCCCAGTGTGTGTAGTGCGATCTTCCAGGTCCTCCTGGTTGGCGTTGTCCAGAAACTGCTTCAGGTAAGTGGGGTGTGCCCAATCCCTACAAAGGTTGATTCTTTCACCACCTTAGGAATGCTCCGGAGGTACCCCAGCAACAGCTGGGATCTGACCGGAGGCTAATTGTCTACGGGTGGTGTTTCCTTTTTCTTTTCACACAACTCTACTGCTGACAACTCACTGACTATCCACTTGCTCTCTTGTGCCTTTCTGCTCTGGTTCAAGTTCCTTGATTGTTTTTGACTGCTTTTCACTGCTTTTCTTCTCACAATCCTTGCTCAGTTCAAAGTC
B1 yielded an Expression of 1.87E+08.

B2: Seneca valley virus (nucleic acid)
DNA: TTTGAAATGGGGGGCTGGGCCCTGATGCCCAGTCCTTCCTTTCCCCTTCCGGGGGGTTAACCGGCTGTGTTTGCTAGAGGCACAGAGGGGCAACATCCAACCTGCTTTTGCGGGGAACGGTGCGGCTCCGATTCCTGCGTCGCCAAAGGTGTTAGCGCACCCAAACGGCGCACCTACCAATGTTATTGGTGTGGTCTGCGAGTTCTAGCCTACTCGTTTCTCCCCCGACCATTCACTCACCCACGAAAAGTGTGTTGTAACCATAAGATTTAACCCCCGCACGGGATGTGCGATAACCGTAAGACTGGCTCAAGCGCGGAAAGCGCTGTAACCACATGCTGTTAGTCCCTTTATGGCTGCAAGATGGCTACCCACCTCGGATCACTGAACTGGAGCTCGACCCTCCTTAGTAAGGGAACCGAGAGGCCTTCGTGCAACAAGCTCCGACACAGAGTCCACGTGACTGCTACCACCATGAGTACATGGTTCTCCCCTCTCGACCCAGGACTTCTTTTTGAATATCCACGGCTCGATCCAGAGGGTGGGGCATGACCCCTAGCATAGCGAGCTACAGCGGGAACTGTAGCTAGGCCTTAGCGTGCCTTGGATACTGCCTGATAGGGCGACGGCCTAGTCGTGTCGGTTCTATAGGTAGCACATACAAAT
Regarding B2, the Expression was 1.46E+07.

B3: Caprine Kobuvirus d40 (nucleic acid, listed as Kobuvirus sp.)
DNA: GTGGCCACGCCCGGGCCACCGATACTTCCCTTCACTCCTTCGGGACTGTTGGGGAGGAACACAACAGGGCTCCCCTGTTTTCCCATTCCTTCCCCCTTTTCCCAACCCCAACCGCCGTATCTGGTGGCGGCAAGACACACGGGTCTTTCCCTCTAAAGCACAATTGTGTGTGTGTCCCAGGTCCTCCTGCGTACGGTGCGGGAGTGCTCCCACCCAACTGTTGTAAGCCTGTCCAACGCGTCGTCCTGGCAAGACTATGACGTCGCATGTTCCGCTGCGGATGCCGACCGGGTAACCGGTTCCCCAGTGTGTGTAGTGCGATCTTCCAGGTCCTCCTGGTTGGCGTTGTCCAGAAACTGCTTCAGGTAAGTGGGGTGTGCCCAATCCCTACAAAGGTTGATTCTTTCACCACCTTAGGAATGCTCCGGAGGTACCCCAGCAACAGCTGGGATCTGACCGGAGGCTAATTGTCTACGGGTGGTGTTTCCTTTTTCTTTTCACACAACTCTACTGCTGACAACTCACTGACTATCCACTTGCTCTCTTGTGCCTTTCTGCTCTGGTTCAAGTTCCTTGATTGTTTTTGACTGCTTTTCACTGCTTTTCTTCTCACAATCCTTGCTCAGTTCAAAGTC
Consider B3, for which the Expression is 2.15E+08.

B4: Yak enterovirus (nucleic acid, listed as Enterovirus sp.)
DNA: CTCCGGCACAGCCGCACCAGTGCACTGGTACGCTAGTACCTTTTCACGGGGTAGTCGGTATCCCCCCCCGTAACTTAGAAGCATGTAACAAACCGACCAATAGGTGCGCGGCAGCCAGCTGCGTTGCGGTCAAGCACTTCTGTCTCCCCGGTCCGCAAGGATCGTTACCCGCCCACTCCACTACGAGGAGCCTAGTAACTGGCCAAGTGATTGCGGAGTTGCGTTCAGCCACAACCCCAGTGGTAGCTCTGGAAGATGGGGCTCGCACATCCCCCGTGGTAACACGGTTGCTTGCCCGCGTGTGCTTCCGGGTTCAGTCTCCGACTGTTCACTTCAACATCACGCAACCAGCCAAGAGCCGATTGTGCTGGAGTGGTCTTCCTCCGGGGCCGTGAATGCTGCTAATCCTAACCTCCGAGCGTGTGCGCACAATCCAGTGTTGCTACGTCGTAACGCGTAAGTTGGAGGCGGAACAGACTACTTTCGGCACCCCGTGTTTCCTTTATTTTATTCTTATTTTATGGTGACAATTGCAGAGATTTGTGATATTGCGACTTTACCGTTAAACATAGCACTGCATTACCTGGTTGCATTCCACAAAACTTCAGAGATTCCTAGTTCCTACATTGACCTACTTGTTTATTTGAATCTTAAATACAAACTTGAGCAAGTGAA
Molecule B4 gave an Expression of 6.19E+06.

B5: Caprine Kobuvirus d20 (nucleic acid, listed as Kobuvirus sp.)
DNA: CCCCCTCACCCTCTTTTCCGGTGGCCACGCCCGGGCCACCGATACTTCCCTTCACTCCTTCGGGACTGTTGGGGAGGAACACAACAGGGCTCCCCTGTTTTCCCATTCCTTCCCCCTTTTCCCAACCCCAACCGCCGTATCTGGTGGCGGCAAGACACACGGGTCTTTCCCTCTAAAGCACAATTGTGTGTGTGTCCCAGGTCCTCCTGCGTACGGTGCGGGAGTGCTCCCACCCAACTGTTGTAAGCCTGTCCAACGCGTCGTCCTGGCAAGACTATGACGTCGCATGTTCCGCTGCGGATGCCGACCGGGTAACCGGTTCCCCAGTGTGTGTAGTGCGATCTTCCAGGTCCTCCTGGTTGGCGTTGTCCAGAAACTGCTTCAGGTAAGTGGGGTGTGCCCAATCCCTACAAAGGTTGATTCTTTCACCACCTTAGGAATGCTCCGGAGGTACCCCAGCAACAGCTGGGATCTGACCGGAGGCTAATTGTCTACGGGTGGTGTTTCCTTTTTCTTTTCACACAACTCTACTGCTGACAACTCACTGACTATCCACTTGCTCTCTTGTGCCTTTCTGCTCTGGTTCAAGTTCCTTGATTGTTTTTGACTGCTTTTCACTGCTTTTCTTCTCACAATCCTTGCTCAGTTCAAAGTC
With B5, the Expression turned out to be 2.00E+08.

B6: Caprine Kobuvirus d10 (nucleic acid, listed as Kobuvirus sp.)
DNA: GGGGCCTCGGCCCCCTCACCCTCTTTTCCGGTGGCCACGCCCGGGCCACCGATACTTCCCTTCACTCCTTCGGGACTGTTGGGGAGGAACACAACAGGGCTCCCCTGTTTTCCCATTCCTTCCCCCTTTTCCCAACCCCAACCGCCGTATCTGGTGGCGGCAAGACACACGGGTCTTTCCCTCTAAAGCACAATTGTGTGTGTGTCCCAGGTCCTCCTGCGTACGGTGCGGGAGTGCTCCCACCCAACTGTTGTAAGCCTGTCCAACGCGTCGTCCTGGCAAGACTATGACGTCGCATGTTCCGCTGCGGATGCCGACCGGGTAACCGGTTCCCCAGTGTGTGTAGTGCGATCTTCCAGGTCCTCCTGGTTGGCGTTGTCCAGAAACTGCTTCAGGTAAGTGGGGTGTGCCCAATCCCTACAAAGGTTGATTCTTTCACCACCTTAGGAATGCTCCGGAGGTACCCCAGCAACAGCTGGGATCTGACCGGAGGCTAATTGTCTACGGGTGGTGTTTCCTTTTTCTTTTCACACAACTCTACTGCTGACAACTCACTGACTATCCACTTGCTCTCTTGTGCCTTTCTGCTCTGGTTCAAGTTCCTTGATTGTTTTTGACTGCTTTTCACTGCTTTTCTTCTCACAATCCTTGCTCAGTTCAAAGTC
For B6, the Expression was determined as 2.20E+08.

B7: Sclerotinia sclerotiorum dsRNA mycovirus-L (nucleic acid)
DNA: TTGAATTAATCTTTTACGTTTACGCGCATAAAATCAGGACACATCTCTTGTATACTTTAGTATATCAATGATGTTTTTGTTTTATGCGATTAATCGTAAGAGAACTTCTTTCCATCCGCCTGTATGGGCGGGATAATAAGTTCACCGCCTTGGTCGAGGCGCAAACTTGTATGTGCAAAGGTGAGCTATATGCTCGAAATAGTCGTAACTAACACACAGCCACTACCTGTAGAGCTCTATTGATCCGGAATCCTTTAGTGGGAATGCAGAGCTCACACCGGACCTGCGGGTATCTTCGGCGTTAGGGACTTCTGTTTCAGCCTTGAATCATTTACCTTTATACCTTCTCTGAGGCGCCTGGGCCGGGCGCGATATTAAGTACAAGTCAAGGACATCGCGGGTAGTGGTCTAATCAGCCGCTAGTCCTGCTGGAGAGTTCCAACTTAGTTGGGTGTGGTGCATACTAGCTGGATAGAGTAGGTATGTATTGCTAACGTATGCCGGAGGCTATCCGTCCTCGGTAGAACGTGCCGAGGAGTAGTCTCTGCAGACCCCCGAACGCGTGGGGTCTTTACTTAAATGTAGGCGGAGGGAGCGCTCGTAGGTGGAACGACTGCCTCCCAGTCGAATGCAAGATTTTGCACGCGGACCAGTCTGCCCGGCAATTCCCGGGTG
For the molecule B7, the Expression stood at 1.69E+05.

B8: Avian orthoreovirus segment S1 (nucleic acid, listed as Avian orthoreovirus)
DNA: GCTTTTTCAATCCCTTGTGTCGATGTTCCCGTATGTCATCTGGTTCATGTAACGGTGCAACTTCTATTTTTGGTAACGTTCACTGTCAGGCAGCGCAAAACTCGGCGGGTGGTGATCTTCAAGCGACTTCCTCTCTTGTTGCTTATTGGCCCTACTTGGCTGCGGGCGGTGGTCTGCTCGTTGTTATTATTATAATTGTTGGCGCTGTTTGTTGTTGCAAGGCTAAGGTTAAAGCGGACGCAGCCCGAAACGTTTTCTACCGAGAGCTGTTCGCACTTAATTCGGGTAAAAGTGATGCAGGACCTCCGATTTACCAGGTTTAGTGTACGACGATTTGAGTTTTCACCTTTCGTCTTAGAGGAGTGCACTACTCCATCTTTCACGACTATAACTAATACCGATCCGGCTCTCTACTTTAACATTGAGTTTCCGTCAAGTCATCGTCTCTCCCCCTTCATTCCAGAACTGTTGTCTCAGCCTTGTACCGTTCACGTTTCATTGATTCGGAGATTCGCTCTCTGTGCAACCTTATCTAGTATTTGTGAATACGACTGTGCGCTACTGCCATCCATCAACGCTATTACGACGATCCCTACACCAGGTGCGTCATCATCTCTGATTGTTCATTGGG
Regarding B8, the Expression was determined as 4.37E+05.

B9: Wobbly possum disease virus (nucleic acid)
DNA: CGGCTGTGAGTGCTTAGCATATGCTAGAGTACTACAGCCGGGTGTTGGAGTCATATGCACTGGTTGCCTGTATAATAGTCGGGATCTGTCTGACCTACATTATCTTTGGGAGTTGCTTATCACGACAATTCTCGAAGTGTCTGTCGACAGCTTACCCCCGATTCGACAAGGCCCCTTGTCCACCGCAGACCTATCGATTTTCAACGAGAACACTATCAGAGGTTTAAATTTAAAACTCACCAACA
Take B9: the Expression is on record as 2.60E+05.
